Values quoted from earlier work, collected in publication PMC10524267.

Biological target: CX3CR1 (Homo sapiens) (UniProt P49238)
Chain of UniProt P49238 (P49238 whole entry): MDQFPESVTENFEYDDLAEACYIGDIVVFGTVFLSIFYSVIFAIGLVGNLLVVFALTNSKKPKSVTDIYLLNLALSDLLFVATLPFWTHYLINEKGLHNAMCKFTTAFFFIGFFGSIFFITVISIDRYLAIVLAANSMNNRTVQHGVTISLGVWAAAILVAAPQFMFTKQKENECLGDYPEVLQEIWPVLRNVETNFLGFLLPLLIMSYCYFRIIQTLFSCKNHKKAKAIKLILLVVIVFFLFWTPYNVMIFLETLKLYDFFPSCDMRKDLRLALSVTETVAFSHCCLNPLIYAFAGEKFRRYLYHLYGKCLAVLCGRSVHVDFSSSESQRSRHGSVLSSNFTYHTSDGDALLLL

For CX3CL1 (from UniProt P78423), the Kd is listed as 910 pM.
